The values below come from US20230398232A1 (NAVROGEN, published 2023).

Assay [1] deals with T1, soluble human CA125 protein (human, UniProt Q8WXI7 1-14451, limits assumed).
T1 construct: Coated on the ELISA plate at 15 KU/mL; also called MUC16/CA125; soluble CA125
Description: ELISA, plate coated with 15 KU/mL soluble CA125, probed with antibody, anti-Fc-HRP detection. As for the experimental part: FIG. 1A. Screening for anti-mesothelin antibodies not bound by the immunosuppressive CA125 protein; identification of MES-1 antibody (SEQ ID NO: 1 and 2). Briefly, 96-well ELISA plates were coated with 15 KU/mL of soluble CA125, 1 μg/mL of recombinant human mesothelin protein as a positive control and 1 μg/mL of human serum albumin (HSA) as a negative control and probed with 2.5 μg/mL of different anti-mesothelin antibodies to determine if they are bound by CA125. Wells were washed and detected for binding via a secondary anti-human or anti-rodent Fc-horseradish peroxidase (HRP) conjugated antibody and 3,3′,5,5′-Tetramethylbenzidine (TMB) substrate. Reactions were stopped with 0.1N H₂SO₄ and wells quantified using a multi-well plate reader (Varioskan™, ThermoFisher) at 450 nm. As shown, the antibody MES-1 consisting of SEQ ID NOs: 1 and 2 [Ab-3 (lane 3)] was not bound by CA125 while the other four anti-mesothelin antibodies tested were all bound by CA125. Values were determined from the average of triplicate wells. Statistical analysis was done using student's T-test. FIG. 1B. […] Both Ab-3 and Ab-4 uptake were measured in replica in black 96-well microplates over the course of 24 hours measuring intracellular fluorescence on a Varioskan™ plate reader. […]

The target in another assay is T2, human serum albumin (human, UniProt P02768 25-609).
T2 construct: Negative control, coated at 1 ug/mL; also called HSA
Put plainly: ELISA, plate coated with 1 µg/mL HSA, probed with antibody. As for the experimental part:
Antibodies were tested for uptake by incubating each with the human ovarian cancer cell line OVCAR3 that express mesothelin and membrane bound CA125. The parental line was used to generate an isogenic CA125 knockdown line via shRNA (referred to as OVCAR3-KO). Both Ab-3 and Ab-4 uptake were measured in replica in black 96-well microplates over the course of 24 hours measuring intracellular fluorescence on a Varioskan™ plate reader. […] Statistical analysis was done using a two-sided student's T-test.
Several studies have reported that antibodies that are bound by CA125 are negatively affected in eliciting humoral mediated immune killing as well as ADC-mediated killing of target cells (Kline J B, et. al. OncoTarget 8:52045-52060, 2017; Kline J B, et al. Eur J Immunol 48:1872-1882, 2018; Kline J B, et al. J Clin Oncol 5:15, 2018; Nicolaides N C, et al. Cancer Biol Ther 13:1-22, 2018; Nicolaides et. al. USPTO application 1698444). In an attempt to identify anti-mesothelin antibodies that naturally are not bound by CA125, we obtained a number of anti-mesothelin antibodies from academic and commercial sources (National Cancer Institute, Creative Biolabs, Novus, etc.) and tested them for CA125 binding. […] Recombinant mesothelin was used as a positive control and human serum albumin (HSA) was used as negative control. […]
A general note: ELISA stands for enzyme-linked immunosorbent assay.

B1: MES-1 antibody (antibody, human IgG1, kappa, V domains shown)
VH: EVQLVESGGGLVQPGGSLRLSCAASGFDLGFYFYACWVRQAPGKGLEWVSCIYTAGSGSTYYASWAKGRFTISRDNSKNTLYLQMNSLRAEDTAVYYCARSTANTRSTYYLNLWGQGTLVTVSS
VL: DIQMTQSPSSLSASVGDRVTITCQASQRISSYLSWYQQKPGKVPKLLIYGASTLASGVPSRFSGSGSGTDFTLTISSLQPEDVATYYCQSYAYFDSNNWHAFGGGTKVEIKR
notes: For the uptake assay the antibody carried the pHrodo dye; also called meso-Ab3; Ab-3
For B1, the binding result (in assay [1]; in the assay with human serum albumin) was “no binding (tested: 2.5 µg/mL)” throughout.
